Reference: patent US20150087809A1
Read-outs that look alike come from different tables or passages of the source.

Columns and labels:
[1] = target: T1, HLA-A24 type molecule (product of the HLA-A*2402 gene) (human)
[2] = target: T1, HLA-A24 type molecule (product of the …); remark: listed apart in the source
[3] = target: T1, HLA-A24 type molecule (product of the …); remark: listed apart in the source

Row | Binder | -log Kd [2] | -log Kd [3] | also measured
1 | AYYSMVGNW (modifications not checked) [SEQ ID NO 22] | – | – | -log Kd [1]: 6.47 -log Kd (M)
2 | VFPDLGVRV (modifications not checked) [SEQ ID NO 123] | 6.74 -log Kd (M) | – | –
3 | WHYPCTVNF (modifications not checked) [SEQ ID NO 8] | – | – | -log Kd [1]: 6.39 -log Kd (M)
4 | SYTWTGALI (modifications not checked) [SEQ ID NO 14] | – | – | -log Kd [1]: 7.13 -log Kd (M)
5 | LMCAVHPEL (modifications not checked) [SEQ ID NO 55] | – | 6.59 -log Kd (M) | –
6 | ILLGPADSF (modifications not checked) [SEQ ID NO 75] | – | 5.5 -log Kd (M) | –
7 | PLLRDEVTF (modifications not checked) [SEQ ID NO 87] | 5.09 -log Kd (M) | – | –
8 | TVLADFKTW (modifications not checked) [SEQ ID NO 90] | 6.52 -log Kd (M) | – | –
9 | RYAPACKPL (modifications not checked) [SEQ ID NO 71] | – | 6.76 -log Kd (M) | –
10 | LLSTTEWQI (modifications not checked) [SEQ ID NO 109] | 8.34 -log Kd (M) | – | –
11 | ILMTHFFSI (modifications not checked) [SEQ ID NO 13] | – | – | -log Kd [1]: 7.9 -log Kd (M)
12 | LMTHFFSIL (modifications not checked) [SEQ ID NO 18] | – | – | -log Kd [1]: 5.92 -log Kd (M)
13 | PLLRDEVTF (modifications not checked) [SEQ ID NO 59] | – | 5.09 -log Kd (M) | –
14 | SYTWTGALI (modifications not checked) [SEQ ID NO 108] | 7.13 -log Kd (M) | – | –
15 | TVLADFKTW (modifications not checked) [SEQ ID NO 56] | – | 6.52 -log Kd (M) | –
16 | AFYGVWPLL (modifications not checked) [SEQ ID NO 49] | – | 7.73 -log Kd (M) | –
17 | WHYPCTVNF (modifications not checked) [SEQ ID NO 52] | – | 6.39 -log Kd (M) | –
18 | NFSRCWVAL (modifications not checked) [SEQ ID NO 37] | – | – | -log Kd [1]: 6.28 -log Kd (M)
19 | SYTWTGALI (modifications not checked) [SEQ ID NO 61] | – | 7.13 -log Kd (M) | –
20 | VILDSFDPI (modifications not checked) [SEQ ID NO 2] | – | – | -log Kd [1]: 5.32 -log Kd (M)
21 | ITYSTYCKF (modifications not checked) [SEQ ID NO 40] | – | – | -log Kd [1]: 6.98 -log Kd (M)
22 | ILLGPADSF (modifications not checked) [SEQ ID NO 100] | 5.5 -log Kd (M) | – | –
23 | LLKRLHQWI (modifications not checked) [SEQ ID NO 19] | – | – | -log Kd [1]: 6.86 -log Kd (M)

Row | Binder | -log Kd [2] | -log Kd [3] | also measured
24 | LLKRLHQWI (modifications not checked) [SEQ ID NO 65] | – | 6.86 -log Kd (M) | –
25 | WLRDVWDWI (modifications not checked) [SEQ ID NO 76] | – | 6.34 -log Kd (M) | –
26 | WHYPCTVNF (modifications not checked) [SEQ ID NO 92] | 6.39 -log Kd (M) | – | –
27 | ITYSTYGKF (modifications not checked) [SEQ ID NO 107] | – | – | -log Kd ([2]; remark: other sources report otherwise): 6.37 -log Kd (M)
28 | ILMTHFFSI (modifications not checked) [SEQ ID NO 60] | – | 7.9 -log Kd (M) | –
29 | RYAPACKPL (modifications not checked) [SEQ ID NO 110] | 6.76 -log Kd (M) | – | –
30 | VILDSFEPL (modifications not checked) [SEQ ID NO 84] | 5 -log Kd (M) | – | –
31 | AYYSMVGNW (modifications not checked) [SEQ ID NO 67] | – | 6.47 -log Kd (M) | –
32 | VLADFKTWL (modifications not checked) [SEQ ID NO 112] | 6.63 -log Kd (M) | – | –
33 | LLKRLHQWI (modifications not checked) [SEQ ID NO 104] | 6.86 -log Kd (M) | – | –
34 | GLIHLHQNI (modifications not checked) [SEQ ID NO 54] | – | 5.86 -log Kd (M) | –
35 | ILLGPADSF (modifications not checked) [SEQ ID NO 27] | – | – | -log Kd [1]: 5.5 -log Kd (M)
36 | WLRDVWDWI (modifications not checked) [SEQ ID NO 106] | 6.34 -log Kd (M) | – | –
37 | GLIHLHQNI (modifications not checked) [SEQ ID NO 94] | 5.86 -log Kd (M) | – | –
38 | AQPGYPWPL (modifications not checked) [SEQ ID NO 12] | – | – | -log Kd [1]: 5.36 -log Kd (M)
39 | LLSTTEWQI (modifications not checked) [SEQ ID NO 42] | – | – | -log Kd [1]: 8.34 -log Kd (M)
40 | ILPCSFTTL (modifications not checked) [SEQ ID NO 1] | – | – | -log Kd [1]: 7.66 -log Kd (M)
41 | LMTHFFSIL (modifications not checked) [SEQ ID NO 64] | – | 5.92 -log Kd (M) | –
42 | ILMTHFFSI (modifications not checked) [SEQ ID NO 96] | 7.9 -log Kd (M) | – | –
43 | VILDSFEPL (modifications not checked) [SEQ ID NO 45] | – | 5 -log Kd (M) | –
44 | AFYGVWPLL (modifications not checked) [SEQ ID NO 98] | 7.73 -log Kd (M) | – | –
45 | AYYSMVGNW (modifications not checked) [SEQ ID NO 102] | 6.47 -log Kd (M) | – | –
46 | AQPGYPWPL (modifications not checked) [SEQ ID NO 58] | – | 5.36 -log Kd (M) | –
